Test [1] concerns the target T1, human transglutaminase type 2 (TG2) (human, UniProt P21980 1-687).
T1 sequence: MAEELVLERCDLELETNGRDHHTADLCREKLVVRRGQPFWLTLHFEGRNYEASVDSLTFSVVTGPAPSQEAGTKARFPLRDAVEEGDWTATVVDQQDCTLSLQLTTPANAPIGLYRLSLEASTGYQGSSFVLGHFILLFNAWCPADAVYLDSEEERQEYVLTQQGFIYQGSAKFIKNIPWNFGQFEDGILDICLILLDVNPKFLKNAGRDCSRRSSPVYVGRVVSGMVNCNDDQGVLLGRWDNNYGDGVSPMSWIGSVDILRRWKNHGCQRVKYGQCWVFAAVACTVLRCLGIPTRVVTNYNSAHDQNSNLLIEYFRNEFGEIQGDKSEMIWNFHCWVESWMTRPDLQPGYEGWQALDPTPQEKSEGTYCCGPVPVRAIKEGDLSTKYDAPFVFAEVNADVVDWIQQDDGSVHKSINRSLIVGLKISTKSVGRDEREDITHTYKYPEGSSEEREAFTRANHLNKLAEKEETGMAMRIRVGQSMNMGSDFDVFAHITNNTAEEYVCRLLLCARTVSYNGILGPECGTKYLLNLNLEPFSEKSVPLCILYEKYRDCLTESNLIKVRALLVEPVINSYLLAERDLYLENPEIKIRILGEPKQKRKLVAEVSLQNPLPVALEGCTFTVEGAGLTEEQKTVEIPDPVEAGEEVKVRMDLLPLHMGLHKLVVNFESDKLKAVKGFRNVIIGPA
The test can be described thus: cell-based or functional assay.

A further test addresses T2, rat TG2 (rat, UniProt Q9WVJ6 1-686).
T2 sequence: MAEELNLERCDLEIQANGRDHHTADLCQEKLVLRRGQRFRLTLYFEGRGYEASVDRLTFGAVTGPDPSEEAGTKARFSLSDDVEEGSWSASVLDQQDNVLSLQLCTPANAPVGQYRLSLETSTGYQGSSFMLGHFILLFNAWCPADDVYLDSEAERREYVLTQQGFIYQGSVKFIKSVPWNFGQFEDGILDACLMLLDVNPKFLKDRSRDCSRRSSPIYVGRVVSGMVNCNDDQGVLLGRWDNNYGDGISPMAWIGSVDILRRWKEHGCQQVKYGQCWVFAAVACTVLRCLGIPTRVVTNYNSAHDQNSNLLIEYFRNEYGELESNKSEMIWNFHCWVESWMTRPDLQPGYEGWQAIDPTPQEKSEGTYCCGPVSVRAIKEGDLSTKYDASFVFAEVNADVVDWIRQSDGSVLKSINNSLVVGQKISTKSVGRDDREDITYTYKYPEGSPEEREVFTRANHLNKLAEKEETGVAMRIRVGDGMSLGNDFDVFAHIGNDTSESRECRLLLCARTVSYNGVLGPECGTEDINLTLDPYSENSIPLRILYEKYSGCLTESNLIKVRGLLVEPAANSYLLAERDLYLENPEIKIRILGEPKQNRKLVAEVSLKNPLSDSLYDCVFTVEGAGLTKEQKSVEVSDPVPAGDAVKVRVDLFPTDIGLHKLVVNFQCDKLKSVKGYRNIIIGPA
The test can be described thus: western blot and ELISA. (In general: In western blotting, separated proteins are transferred to a membrane and probed.)

The next test has as its target T3, mouse TG2 (mouse, UniProt P21981 1-686).
T3 sequence: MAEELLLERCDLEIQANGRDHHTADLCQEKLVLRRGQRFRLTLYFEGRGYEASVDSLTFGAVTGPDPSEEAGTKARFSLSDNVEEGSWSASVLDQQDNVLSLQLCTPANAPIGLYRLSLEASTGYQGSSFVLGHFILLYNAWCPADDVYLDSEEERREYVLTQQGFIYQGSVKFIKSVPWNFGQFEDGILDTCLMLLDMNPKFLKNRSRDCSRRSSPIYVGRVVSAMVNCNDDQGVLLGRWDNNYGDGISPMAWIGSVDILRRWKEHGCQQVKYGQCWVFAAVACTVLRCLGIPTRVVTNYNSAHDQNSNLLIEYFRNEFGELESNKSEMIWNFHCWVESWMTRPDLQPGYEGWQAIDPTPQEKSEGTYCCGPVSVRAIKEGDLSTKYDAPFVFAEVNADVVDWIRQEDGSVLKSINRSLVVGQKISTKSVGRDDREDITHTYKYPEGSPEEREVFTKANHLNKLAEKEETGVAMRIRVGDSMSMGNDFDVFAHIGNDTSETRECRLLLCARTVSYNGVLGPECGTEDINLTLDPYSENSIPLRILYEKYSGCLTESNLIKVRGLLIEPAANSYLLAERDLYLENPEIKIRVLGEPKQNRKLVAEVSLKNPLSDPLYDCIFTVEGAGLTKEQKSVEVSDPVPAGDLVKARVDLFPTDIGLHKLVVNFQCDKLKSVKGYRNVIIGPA
The test can be described thus: western blot and ELISA.

Results on one molecule are retold here after patent US20180355060A1 (published 2018).

B1: AB1 murine monoclonal anti-TG2 antibody (antibody, V domains shown)
VH: EVQLVESGGGLVKPGGSLKLSCAASGFTLSSSAMSWVRQTPDRRLEWVATISVGGGKTYYPDSVKGRFTISRDNAKNTLYLQMNSLRSEDTAMYYCAKLISLYWGQGTTLTVSS
VL: DIKMTQSPSSMYASLGERVTITCKASQDINSYLTWFQQKPGKSPKTLIYRTNRLFDGVPSRFSGSGSGQDFFLTISSLEYEDMGIYYCLQYDDFPYTFGGGTKLEIK
notes: they differ only in the first residues; also called AB1 IgG; mAB003
Regarding B1, the “IC50, 3H-putrescine incorporation TG activity assay” value in test [1] was 1.1e-05 mg/ml of IgG (amount required to inhibit 1 ng of TG2). Further, the binding result with rat TG2 and with mouse TG2 was “binds” throughout.
